Data reported in patent US20180111972A1 (Stanford University, published 2018).
Numbering of substitutions follows the chain as printed. Names may count otherwise.

B1: PVAM-S (PV R32A), soluble, FLAG and hexahistidine tags (designed binder)
chain: DYKDDDDKIAEPAMIAECHPIETLVDILQEYPDEIGYIFKPSCVPLMRCGGCCNNRNVQCRPTEESNITMQIMRIKPHRGQHIGEMSFLQHNKCRCETVAAGSTSGSGKSSEGKGEVVKFMDVYQRSYCKTRTEVFEISRRLIDATNANFLVWPPCVEVQRCSGCCNHEGLECVPTQVQLRPVQVRKIEFVRKKPIFKKATVTLEDHLACECRPKKDHHHHHH
notes: Secreted from S. cerevisiae YVH10 and treated with Endo Hf
B2: PV6 PDGF/VEGF chimera, soluble, N-terminal FLAG and C-terminal hexahistidine tags (designed binder)
chain: B1 chain with L28F, G36E, R79Q, R95K, A145R, H168D, F190I, E211K
notes: Secreted from S. cerevisiae YVH10 and treated with Endo Hf; also called soluble PV6

Tests used:
[1] = biological target: T1, human VEGFR on human umbilical vein endothelial cells (HUVECs) (human, UniProt P35968 20-1356); assay: flow cytometry on HUVECs, soluble ligand titrated
T1 construct: The phosphorylation blots on these cells detect VEGFR2
T1 sequence (P35968 20-1356 limits assumed): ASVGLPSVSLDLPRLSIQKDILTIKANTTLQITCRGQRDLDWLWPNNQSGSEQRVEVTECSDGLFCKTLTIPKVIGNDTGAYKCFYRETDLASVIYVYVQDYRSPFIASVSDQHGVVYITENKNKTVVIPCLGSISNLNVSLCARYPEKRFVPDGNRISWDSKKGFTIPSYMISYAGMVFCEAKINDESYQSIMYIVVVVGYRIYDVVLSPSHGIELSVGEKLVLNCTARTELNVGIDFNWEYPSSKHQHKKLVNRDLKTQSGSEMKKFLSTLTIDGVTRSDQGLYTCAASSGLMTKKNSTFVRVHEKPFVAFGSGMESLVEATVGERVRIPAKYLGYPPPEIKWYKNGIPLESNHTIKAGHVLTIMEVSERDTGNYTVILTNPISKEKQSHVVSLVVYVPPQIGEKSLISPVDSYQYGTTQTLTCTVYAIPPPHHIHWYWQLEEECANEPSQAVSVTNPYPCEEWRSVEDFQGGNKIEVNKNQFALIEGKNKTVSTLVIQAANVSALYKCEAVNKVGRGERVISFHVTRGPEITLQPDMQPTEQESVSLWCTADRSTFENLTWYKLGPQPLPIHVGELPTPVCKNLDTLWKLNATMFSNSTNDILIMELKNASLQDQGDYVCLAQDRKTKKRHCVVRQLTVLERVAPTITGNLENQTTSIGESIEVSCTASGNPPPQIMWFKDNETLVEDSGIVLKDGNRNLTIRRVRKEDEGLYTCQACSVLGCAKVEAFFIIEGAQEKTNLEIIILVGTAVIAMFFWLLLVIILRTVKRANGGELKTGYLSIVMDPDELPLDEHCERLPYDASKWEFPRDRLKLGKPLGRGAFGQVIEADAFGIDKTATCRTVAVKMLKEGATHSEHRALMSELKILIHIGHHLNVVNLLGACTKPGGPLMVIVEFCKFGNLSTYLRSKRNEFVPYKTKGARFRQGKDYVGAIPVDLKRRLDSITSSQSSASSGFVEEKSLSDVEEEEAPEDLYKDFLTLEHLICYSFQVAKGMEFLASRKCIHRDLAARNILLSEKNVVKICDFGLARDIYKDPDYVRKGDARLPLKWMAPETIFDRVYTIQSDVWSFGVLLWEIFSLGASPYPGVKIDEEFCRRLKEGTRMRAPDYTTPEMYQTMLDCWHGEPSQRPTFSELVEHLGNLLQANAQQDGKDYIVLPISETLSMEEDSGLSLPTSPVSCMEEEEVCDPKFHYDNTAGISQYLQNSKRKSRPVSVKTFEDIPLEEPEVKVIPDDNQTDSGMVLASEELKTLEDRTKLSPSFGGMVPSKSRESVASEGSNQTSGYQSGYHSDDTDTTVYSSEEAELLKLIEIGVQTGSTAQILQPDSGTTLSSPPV

[2] = biological target: T1, human VEGFR on human umbilical vein …; assay: flow cytometry on HUVECs, soluble ligand titrated 3 h at 4 C, anti-FLAG-PE
Procedure: Cells were incubated with various concentrations of hybrid PDGF/VEGF for 3 hours at 4° C. Binding was detected using an R-PE-conjugated anti-FLAG antibody, then analyzed by flow cytometry.

[3] = biological target: T1, human VEGFR on human umbilical vein …; assay: cell-based or functional assay

Row | Binder | fold improvement over the bivalent scVEGFwt [1] [fold] | Kd [2] [nM] | IC50 of inhibition of HUVEC proliferation induced by 0.5 nM VEGF165, alamarBlue [3] [nM]
1 | B1 | 7.5 | 0.2 | 
2 | B2 |  |  | 110
